Test [1] concerns the target histone H3 (human) (UniProt P68431). The test can be described thus: SPR kinetic assay, ligand H3 captured on the chip, analyte prothrombin fragment 1 at 1.0-6.0 µM. (In general: SPR reads the build-up and loss of mass on a sensor chip optically.)
For test [2], the target named is histone H4 (human) (UniProt P62805). The test can be described thus: SPR kinetic assay, ligand H4 captured on the chip, analyte prothrombin fragment 1 at 1.0-6.0 µM.

Data on one substance can be found in patent US20210024596A1.

Usually Kd stands for the constant that tells how readily two partners part at equilibrium. The low end stands for a tighter complex, the high end for a looser complex.

Regarding “recombinant human prothrombin fragment 1 (from UniProt P00734 44-198)”, the results for the dissociation constant Kd in test [1] and in test [2] were 2350 nM and 896 nM, respectively.
